Experimental findings from article PMC4022735, “Structural and Biochemical Characterization Reveals LysGH15 as an Unprecedented “EF-Hand-Like” Calcium-Binding Phage Lysin” (PLoS Pathogens, 2014) are described below.

This assay has as its target T1, LysGH15 SH3b domain (residues 368–495) (staphylococcal phage GH15, 15N (and/or 13C) labelled for NMR; N-terminal SNA tag remnant omitted (PDB 2MK5 entity residues 4-131 = 368-495)).
T1 chain: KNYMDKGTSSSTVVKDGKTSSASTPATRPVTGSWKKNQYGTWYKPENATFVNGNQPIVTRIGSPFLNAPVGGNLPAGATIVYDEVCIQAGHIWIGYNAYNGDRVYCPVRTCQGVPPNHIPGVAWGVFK
Kind of assay: NMR titration; 1H-15N HSQC spectra of 15N-labelled SH3b on addition of the peptide (100 mM stock in the buffer of the SH3b sample); 298 K; KD from a fit of the chemical shift perturbations; fast exchange. Conditions: both partners purified.

B1: peptide “AGGGGG” (peptide)
peptide: AGGGGG
notes: synthetic peptide used as previously reported for the SH3b domain of ALE-1; Not a stretch of a named natural protein; also called the peptide; source: synthetic peptide (Sangon Biotech (Shanghai) Co., Ltd.)
As usually defined, the Kd is the free concentration of one partner at which half of the binding sites on the other are occupied at equilibrium, for simple one-to-one binding. In the case of B1, the Kd was around 3000 µM.
